Values quoted from earlier work as cited in US20250341526A1, “NOVEL DYES” (Quantum-Si Incorporated, priority 2024, published 2025).

System: amino acid at a terminal position of a polypeptide
Settings: Table 1, ClpS proteins; amino acid at terminal position; inferred from literature and/or demonstrated by the inventors; cited from earlier work

Molecule | Binding Pref.
Synechococcus elongatus ClpS2: ClpS amino acid recognition protein, SEQ ID NO: 106 (protein, listed as Synechococcus elongatus) MSPQPDESVLSILGVPRPCVKKRSRNDAFVLTVLTCSLQAIAAPATAPGTTTTRVRQPYPHFRVIVLDDDVNTFQHVAECLLKYIPGMTGDRAWDLTNQVHYEGAATVWSGPQEQAELYHEQLRREGLTMAPLEAA | F, W, Y, L
Thermosynechococcus elongatus ClpS: ClpS amino acid recognition protein, SEQ ID NO: 107 (protein, listed as Thermosynechococcus elongatus) MPQERQQVTRKHYPNYKVIVLNDDFNTFQHVAACLMKYIPNMTSDRAWELTNQVHYEGQAIVWVGPQEQAELYHEQLLRAGLTMAPLEPE | F, W, Y, L
Agrobacterium tumifaciens ClpS1 (atClpS1): ClpS amino acid recognition protein, SEQ ID NO: 93 (protein, listed as Agrobacterium tumifaciens) MIAEPICMQGEGDGEDGGTNRGTSVITRVKPKTKRPNLYRVLLLNDDYTPMEFVIHILERFFQKDREAATRIMLHVHQHGVGECGVFTYEVAETKVSQVMDFARQHQHPLQCVMEKK | F, W, Y, L
atClpS1 C7S: ClpS amino acid recognition protein, SEQ ID NO: 103 (protein) MIAEPISMQGEGDGEDGGTNRGTSVITRVKPKTKRPNLYRVLLLNDDYTPMEFVIHILERFFQKDREAATRIMLHVHQHGVGECGVFTYEVAETKVSQVMDFARQHQHPLQCVMEKK | F, W, Y, L
PS218: ClpS amino acid recognition protein, SEQ ID NO: 98 (protein) MIAEPICMQGEGDGEDGGTNRGTSVITRVKPKTKRPNLYRVLLLNDDYTPFQFVIHILERFFQKDREAAWRITLHVHQHGVGECGVFTYEVAETKVSQVMDFARQHQHPLQCVMEKK | F, W, Y, L
atClpS1 C7S, C84S, C112S: ClpS amino acid recognition protein, SEQ ID NO: 104 (protein) MIAEPISMQGEGDGEDGGTNRGTSVITRVKPKTKRPNLYRVLLLNDDYTPMEFVIHILERFFQKDREAATRIMLHVHQHGVGESGVFTYEVAETKVSQVMDFARQHQHPLQSVMEKK | F, W, Y, L
PS389: ClpS amino acid recognition protein, SEQ ID NO: 17 (protein) MLNSAAFKAASASPVIAPERSGQVTQKPYPTYKVIVLNDDFNTFQHVHDCLVKYIPGMTSDRAWQLTHQVHNDGQAIVWVGPQEQAELYHQQLSRAGLTMAPIEAA | F, Y, L
Agrobacterium tumifaciens ClpS2 (atClpS2): ClpS amino acid recognition protein, SEQ ID NO: 94 (protein, listed as Agrobacterium tumifaciens) MSDSPVDLKPKPKVKPKLERPKLYKVMLLNDDYTPREFVTVVLKAVFRMSEDTGRRVMMTAHRFGSAVVVVCERDIAETKAKEATDLGKEAGFPLMFTTEPEE | F, W, Y
atClpS2-V1 + C72S: ClpS amino acid recognition protein, SEQ ID NO: 101 (protein) MSDSPVDLKPKPKVKPKLERPKLYKVMLLNDDYTPMSFVTVVLKAVFRMSEDTGRRVMMTAHRFGSAVVVVSERDIAETKAKEATDLGKEAGFPLMFTTEPEE | F, W, Y
atClpS2 C72S: ClpS amino acid recognition protein, SEQ ID NO: 100 (protein) MSDSPVDLKPKPKVKPKLERPKLYKVMLLNDDYTPREFVTVVLKAVFRMSEDTGRRVMMTAHRFGSAVVVVSERDIAETKAKEATDLGKEAGFPLMFTTEPEE | F, W, Y
Synechococcus elongatus ClpS1: ClpS amino acid recognition protein, SEQ ID NO: 105 (protein, listed as Synechococcus elongatus) MAVETIQKPETTTKRKIAPRYRVLLHNDDFNPMEYVVMVLMQTVPSLTQPQAVDIMMEAHTNGTGLVITCDIEPAEFYCEQLKSHGLSSSIEPDD | F, W, Y
PS376: ClpS amino acid recognition protein, SEQ ID NO: 9 (protein) MPTNDLDLLEKQDVKIERPKMYQVVMYNDDFTPFDFVVAVLMQFFNKGMDEATAIMMQVHMQGKGICGVFPKDIAETKATEVMKWAKVEQHPLRLQVEAQA | F, W, L
Plasmodium falciparum ClpS: ClpS amino acid recognition protein, SEQ ID NO: 110 (protein, listed as Plasmodium falciparum) MFKDLKPFFLCIILLLLLIYKCTHSYNIKNKNCPLNFMNSCVRINNVNKNTNISFPKELQKRPSLVYSQKNFNLEKIKKLRNVIKEIKKDNIKEADEHEKKEREKETSAWKVILYNDDIHNFTYVTDVIVKVVGQISKAKAHTITVEAHSTGQALILSTWKSKAEKYCQELQQNGLTVSIIHESQLKDKQKK | F, W, Y, L
PS382: ClpS amino acid recognition protein, SEQ ID NO: 15 (protein) MSDSPVIKEIKKDNIKEADEHEKKEREKETSAWKVILYNDDIHNFTYVTDVIVKVVGQISKAKAHTITVEAHSTGQALILSTWKSKAEKYCQELQQNGLTVSIIHESQLKDKQKK | F, Y, W, L
Escherichia coli ClpS: ClpS amino acid recognition protein, SEQ ID NO: 108 (protein, listed as Escherichia coli) MGKTNDWLDFDQLAEEKVRDALKPPSMYKVILVNDDYTPMEFVIDVLQKFFSYDVERATQLMLAVHYQGKAICGVFTAEVAETKVAMVNKYARENEHPLLCTLEKA | F, W, Y, L
Escherichia coli ClpS M40A: ClpS amino acid recognition protein, SEQ ID NO: 109 (protein, listed as Escherichia coli) MGKTNDWLDFDQLAEEKVRDALKPPSMYKVILVNDDYTPAEFVIDVLQKFFSYDVERATQLMLAVHYQGKAICGVFTAEVAETKVAMVNKYARENEHPLLCTLEKA | F, W, Y, L
PS388: ClpS amino acid recognition protein, SEQ ID NO: 16 (protein) MVTTLSADVYGMATAPTVAPERSNQVVRKTYPNYKVIVLNDDFNTFQHVAECLMKYIPGMSSDRAWDLTNQVHYEGQAIVWVGPQEPAELYHQQLRRAGLTMAPLEAA | F, Y, L
PS380: ClpS amino acid recognition protein, SEQ ID NO: 13 (protein) MGDIYGESNPEEVSCIDSLSEEGNELILFNDNIHTFEYVIDCLVAICSLSYEQASNCAYIVDRKGLCTVKHGSYDELLIMYHALVEKDLKVEIR | F, W
